Test results published in patent US20240010687A1 (University of Washington, published 2024).

How the values were obtained:
A15.5R82_Axle (C3-C3) = biological target: T1, A15.5R82_Axle (C3-C3); test: single particle cryoEM of the assembled rotor (6.5 Å)
T1 construct: C3 homotrimeric axle with DHR arms; also called C3 axle
T1 chain: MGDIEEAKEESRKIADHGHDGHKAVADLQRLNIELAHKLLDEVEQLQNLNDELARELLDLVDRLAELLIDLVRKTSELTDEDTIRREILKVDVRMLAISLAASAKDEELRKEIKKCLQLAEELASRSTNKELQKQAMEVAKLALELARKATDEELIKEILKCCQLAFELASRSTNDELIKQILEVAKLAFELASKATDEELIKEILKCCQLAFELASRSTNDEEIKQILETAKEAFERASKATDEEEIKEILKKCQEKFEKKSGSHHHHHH
Protocol: Multiple datasets were collected for each design and combined early on during processing. See table 1 and processing flowcharts for details. Briefly, images were manually curated to remove poor quality acquisitions such as bad ice or large regions of carbon. Dose-weighting and image alignment of all 50 frames was carried out using MotionCor2 (56) with 5×5 patch or with cryosparc v2 patch alignment tool with default parameters. Super-resolution krios data was binned 2X during alignment. Initial CTF parameters were estimated using CTFfind4 (57). Particle picking was done with a gaussian blob picker and in some cases followed by a template picker. Particles were extensively classified in 2D to remove junk particles and designs which may not have been intact or were damaged, yielding in some cases relatively few particles. […] In addition, the expected motion of the rotors may have introduced further heterogeneity, limiting classification efforts. Starting models for all designs were always obtained ab initio, despite clear evidence of the expected design in 2D. […] FSC 0.143 curves were generated by exporting half maps to relion for post-process. […] For density modification in Phenix (59), we used as input the exported half maps from cryosparc with default params at 100 bins and local filtering with a factor of 5. […] Directional FSC calculated using remote 3DF SC processing tool. […]

[1] = biological target: T2, A113_c2arms9_Axle (D3-C5); test: EM, biolayer interferometry, SEC and SAXS of the assembled rotor
T2 construct: De novo designed D3 homohexameric axle; For biolayer interferometry it was Avi-tagged and biotinylated; also called D3 axle; axle of the D3-C5 rotor
T2 chain: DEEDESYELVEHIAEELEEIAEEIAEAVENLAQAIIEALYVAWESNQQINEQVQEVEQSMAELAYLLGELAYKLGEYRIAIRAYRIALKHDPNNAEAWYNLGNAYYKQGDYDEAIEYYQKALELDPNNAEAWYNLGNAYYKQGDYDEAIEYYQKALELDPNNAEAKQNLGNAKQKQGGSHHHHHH
Protocol: FIG. 13. Biolayer interferometry assays measuring in vitro assembly of ring and axle parts into a full rotary system. For each 6 designs, the equilibrium binding curves from biolayer interferometry binding assays is shown on the left and the corresponding Biolayer interferometry kinetic binding traces shown on the right. Biotinylated axles were immobilized on the tip and the binding in a solution of fre rings was measured. For both D3-C5 and D3-C3, a fresh ring solution was prepared by buffer exchange from citrate buffer to TBS with reducing agent, and immediately used for binding assays.
Protein samples were purified by SEC in 25 mM Tris pH 8.0, 25 mM NaCl and 1% glycerol; elution fractions corresponding to the protein were further concentrated using 3K protein concentrators (Millipore Sigma) and the flow-through was used as blank for buffer subtraction. SAXS Scattering measurements were performed at the SIBYLS 12.3.1 beamline at the Advanced Light Source. […] Collected data were processed using the SAXS FrameSlice™ online server and analysed using the ScÅtter software package(23). […]

B1: A15.5R82_Ring (C3-C3) (designed binder)
chain: MGVEELLLLARAAHHSGTTVEEAYKLAKKLGISVKELLLLARAAHNSGTTVEEAYKLALKLGISVEELLLLAKAAHYSGTTVEEAYKLALELGISVRELLLLAKAAHFAGRTVREAYALELALGALRLEDRARELIKEAEKKGDPEKLREALEALEEAVRLVEEAIKLRPDMDLAVEIAVRLARMLKRVAELLQELAKKTGDPELLKLALRALEVAVRAVELAIKSNPDNDEAVETAVRLARELKKVAEELQERAKKTGDPELLKLALRALEVAVRAVELAIKSNPDNEEAVETAKRLAEELRKVAELLEERAKETGDPELQELAKRAKEVADRARELAKKSGSHHHHHH
notes: C3 ring of three subunits, each fused to DHR82; also called C3 ring
Does B1 bind (A15.5R82_Axle (C3-C3))?
Result: binds

B2: A113_c2arms9_Ring (D3-C5) (designed binder)
chain: MGDRSEHAKKLKTFLENLRRHLDRLDKHIKQLRDILSENPEDERVKDVIDLSERSVRIVKTVIKIFEDSVRELEKAILWLAEELAKSPDPEDLKRAVELARAVIEANPGSNLSRKAMEIIERAARELSKLPDPEAQRTAIEAASQLATMAAATGNTDQVRRAAELMVEIARLAGTEEAQDLALDALLDVLETALQIATKIIDDANKLLEKLRRSERKDPKVVETYVELLKRHEEAVRLLLEVARVHEELVRFTIIEEKVRSPDCEDIRDAVREAEELLRENPSEMAEELLRRAIEAAVRCPDCEAIREAVRAAEELLRENPSTEAEELLRRAIEAAVRCPDCEAIREAVRAAEELLRENPSEEAKELLRRAIESAKKCPDPEAQREAKRAEEELRKEGSHHHHHH
notes: De novo designed C5 homopentameric ring; also called C5 ring; ring of the D3-C5 rotor
Does B2 bind [1]?
Result: binds
